Data taken from paper PMC8388095, “Specificity of Small c-Type Cytochromes in Anaerobic Ammonium Oxidation” (ACS Omega, 2021).
Blank lines part the entries; values can stand above or below the molecule they belong to.

Key:
[1] = target: Kuenenia stuttgartiensis hydroxylamine oxidase (Kuenenia stuttgartiensis) (UniProt Q1PX48)
purified protein = substrate: NO; assay: purified protein; format: biochemical, Candidatus Kuenenia stuttgartensis; conditions: electron acceptor 50 μM bovine cytochrome c, 20 mM potassium phosphate pH 7.0, 37 °C, kcat per KsHAO trimer

Vmax NH2OH of hydroxylamine oxidation by KsHAO with 50 μM Kustc0563 as the electron acceptor (reduction of the acceptor followed at 550 nm) [1]: 15.8 µmol/min/mg | kcat NH2OH (KsHAO trimer) of hydroxylamine oxidation by KsHAO with 50 μM Kustc0563 as the electron acceptor [1]: 48.4 s^–1
Molecule: Kustc0563nt (Kustc0563 after cleavage of the N-terminal His-tag) (natural protein)

Vmax NH2OH of hydroxylamine oxidation by KsHAO with 50 μM BtCytc as the electron acceptor (reduction of the acceptor followed at 550 nm) [1]: 2.7 µmol/min/mg | kcat NH2OH (KsHAO trimer) of hydroxylamine oxidation by KsHAO with 50 μM BtCytc as the electron acceptor [1]: 8.4 s^–1
Molecule: bovine (Bos taurus) mitochondrial cytochrome c (from UniProt P62894 1-105) (natural protein)

B1: KsHAO (Candidatus Kuenenia stuttgartensis) (protein)
chain: CAMENGVAMAEGPTFQDVASQVFGQPVGPDNDGTLYIFGLTAKYTEPEYVDGRGPYKSFLKMLPSIRWYDPEHYWTNGSQTEGVFKNEECVLCHTVQTPTIVNDWKQSSHGSKDIRRGIGIKKDGKPVEDLVGCADCHGNNHQKLEMPTYKLCNDCHPKETAEHRAGGLGSHTHAYTVNVLEFSWHVGKPAEEVTGCAHCHAIAENRCSGCHTRHKFDPAEARKPTACRVCHMGIDHDEWAMYNTSIHGALYEAESARMDWGKKLKKGNYRVPTCAYCHMQNGDHNPQRFGTIYSDMGMFQVDRGAPKHKAKRDSWIKLCQDCHSPRFAADKLKEMDAGVNLSFTKWREAAAVIVGCYLDGVVDPMPEGSAPDWYGHYTFSLLPGGDPRFYATSNLERLGLEMICYLTGNVYKAYAHMSMYNQTYGNGSAFEQDRKLVEIKTEAAKLRRFAAIEKKIGLEHKSADFWKHGEYLDLLPGWKRKPGDVDVEWFKRTDIPHRANADAGVEIHH
notes: octaheme c-type cytochrome, trimeric; preparation not described
Km (purified protein): 5.8 ± 0.7 µM | Vmax (purified protein): 2.7 µmol/min/mg | kcat (purified protein): 8.4 s⁻¹ | kcat/Km (purified protein): 1.4e+06 M⁻¹ s⁻¹
